# Reference: patent US20180149657A1 (IMMUNOMEDICS, published 2018)
# T1: human Trop-2 (human, UniProt P09758 27-323)
# T1 construct: whole, on cells; also called EGP-1; epithelial glycoprotein-1
# T1 sequence (looked up): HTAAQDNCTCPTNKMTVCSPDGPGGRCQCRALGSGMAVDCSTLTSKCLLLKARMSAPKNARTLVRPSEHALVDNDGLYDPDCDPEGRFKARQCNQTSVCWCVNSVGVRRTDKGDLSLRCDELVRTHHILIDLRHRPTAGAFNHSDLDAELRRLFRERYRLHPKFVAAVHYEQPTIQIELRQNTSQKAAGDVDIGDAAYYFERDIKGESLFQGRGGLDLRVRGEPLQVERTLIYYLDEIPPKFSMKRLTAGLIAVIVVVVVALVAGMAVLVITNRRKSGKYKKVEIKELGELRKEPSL
# Target: T1, human Trop-2
# Experiment: cell binding assay on NCI-N87 cells, anti-mouse-HRP secondary, luminescence
binder,measurement,value
"murine RS7 (antibody, V domains shown) VH: VKLQESGPELKKPGETVKISCKASGYTFTNYGMNWVKQAPGKGLKWMGWINTYTGEPTYTDDFKGRFAFSLETSATTAYLQINNLKSEDMATYFCARGGFGSSYWYFDVWGQGTTVTVSS VL: DIQLTQSHKFMSTSVGDRVSITCKASQDVSIAVAWYQQKPGQSPKLLIYSASYRYTGVPDRFTGSGSGTDFTFTISSVQAEDLAVYYCQQHYITPLTFGAGTKLELK",Kd,0.57 nM
